Assay results as given in US20240117018A1.

Assays:
Assay in all cases: cell-based or functional assay
[1] = target: HIV-1 Env of pseudovirus R1166.c01 (HIV-1)
[2] = target: HIV-1 Env of pseudovirus X2088_c9 (HIV-1)
[3] = target: HIV-1 Env of pseudovirus Du172.17 (HIV-1)
[4] = target: HIV-1 Env of pseudovirus PVO.4 (HIV-1)
[5] = target: HIV-1 Env of pseudovirus 191955_A11 (HIV-1)
[6] = target: HIV-1 Env of pseudovirus Ce1172_H1 (HIV-1)
[7] = target: HIV-1 Env of pseudovirus CAP210.2.00.E8 (HIV-1)
[8] = target: HIV-1 Env of pseudovirus 62357_14_D3_4589 (HIV-1)
[9] = target: HIV-1 Env of pseudovirus Du422.1 (HIV-1)
[10] = target: HIV-1 Env of pseudovirus 3016.v5.c45 (HIV-1)
[11] = target: HIV-1 Env of pseudovirus Q259.d2.17 (HIV-1)
[12] = target: HIV-1 Env of pseudovirus CNE20 (HIV-1)
[13] = target: HIV-1 Env of pseudovirus T250-4 (HIV-1)
[14] = target: HIV-1 Env of pseudovirus X1254_c3 (HIV-1)
[15] = target: HIV-1 Env of pseudovirus 620345.c01 (HIV-1)
[16] = target: HIV-1 Env of pseudovirus BJOX028000.10.3 (HIV-1)
[17] = target: MuLV envelope (negative control pseudovirus) (MuLV)
[18] = target: HIV-1 Env of pseudovirus AC10.0.29 (HIV-1)
[19] = target: HIV-1 Env of pseudovirus 3103.v3.c10 (HIV-1)
[20] = target: HIV-1 Env of pseudovirus Ce1086_B2 (HIV-1)
[21] = target: HIV-1 Env of pseudovirus 6952.v1.c20 (HIV-1)

Substance N49P7-54TY (antibody) has an IC50 (Titer in TZM.bl cells) [1] of 0.131 µg/mL, an IC80 (Titer in TZM.bl cells) [1] of 0.47 µg/mL and an MPI [1] of 100. It also gave an IC50 (Titer in TZM.bl cells) [2] of 0.172 µg/mL, an IC80 (Titer in TZM.bl cells) [2] of 0.572 µg/mL and an MPI [2] of 100. The IC50 (Titer in TZM.bl cells) [3] was 0.124 µg/mL, the IC80 (Titer in TZM.bl cells) [3] was 0.529 µg/mL and the MPI [3] was 100. It also gave an IC50 (Titer in TZM.bl cells) [4] of 0.079 µg/mL, an IC80 (Titer in TZM.bl cells) [4] of 0.314 µg/mL and an MPI [4] of 100. It also gave an IC50 (Titer in TZM.bl cells) [5] of 3.04 µg/mL, an IC80 (Titer in TZM.bl cells) [5] of over 25 µg/mL and an MPI [5] of 72. For the same substance, the IC50 (Titer in TZM.bl cells) [6] was over 25 µg/mL, the IC80 (Titer in TZM.bl cells) [6] was over 25 µg/mL and the MPI [6] was 23. It also gave an IC50 (Titer in TZM.bl cells) [7] of 0.691 µg/mL, an IC80 (Titer in TZM.bl cells) [7] of 3.33 µg/mL and an MPI [7] of 97. For the same substance, the IC50 (Titer in TZM.bl cells) [8] was 0.055 µg/mL, the IC80 (Titer in TZM.bl cells) [8] was 0.192 µg/mL and the MPI [8] was 100. For the same substance, the IC50 (Titer in TZM.bl cells) [9] was 0.402 µg/mL, the IC80 (Titer in TZM.bl cells) [9] was 2.02 µg/mL and the MPI [9] was 96. It also gave an IC50 (Titer in TZM.bl cells) [10] of 0.206 µg/mL, an IC80 (Titer in TZM.bl cells) [10] of 1.91 µg/mL and an MPI [10] of 92. For the same substance, the IC50 (Titer in TZM.bl cells) [11] was 0.132 µg/mL, the IC80 (Titer in TZM.bl cells) [11] was 1.13 µg/mL and the MPI [11] was 95. It also gave an IC50 (Titer in TZM.bl cells) [12] of 0.046 µg/mL, an IC80 (Titer in TZM.bl cells) [12] of 0.16 µg/mL and an MPI [12] of 100. The IC50 (Titer in TZM.bl cells) [13] was 1.02 µg/mL, the IC80 (Titer in TZM.bl cells) [13] was 19.6 µg/mL and the MPI [13] was 83. The IC50 (Titer in TZM.bl cells) [14] was 0.145 µg/mL, the IC80 (Titer in TZM.bl cells) [14] was 0.599 µg/mL and the MPI [14] was 100. The IC50 (Titer in TZM.bl cells) [15] was over 25 µg/mL, the IC80 (Titer in TZM.bl cells) [15] was over 25 µg/mL and the MPI [15] was 0. The IC50 (Titer in TZM.bl cells) [16] was 0.009 µg/mL, the IC80 (Titer in TZM.bl cells) [16] was 0.044 µg/mL and the MPI [16] was 100. For the same substance, the IC50 (Titer in TZM.bl cells) [17] was over 25 µg/mL, the IC80 (Titer in TZM.bl cells) [17] was over 25 µg/mL and the MPI [17] was 0. The IC50 (Titer in TZM.bl cells) [18] was over 25 µg/mL, the IC80 (Titer in TZM.bl cells) [18] was over 25 µg/mL and the MPI [18] was 40. For the same substance, the IC50 (Titer in TZM.bl cells) [19] was 0.151 µg/mL, the IC80 (Titer in TZM.bl cells) [19] was 0.55 µg/mL and the MPI [19] was 100. For the same substance, the IC50 (Titer in TZM.bl cells) [20] was 0.067 µg/mL, the IC80 (Titer in TZM.bl cells) [20] was 0.339 µg/mL and the MPI [20] was 100. It also gave an IC50 (Titer in TZM.bl cells) [21] of over 25 µg/mL, an IC80 (Titer in TZM.bl cells) [21] of over 25 µg/mL and an MPI [21] of 20.

With N49P7YTE (antibody) the IC50 (Titer in TZM.bl cells) [1] was 0.232 µg/mL, the IC80 (Titer in TZM.bl cells) [1] was 0.782 µg/mL and the MPI [1] was 100. For the same substance, the IC50 (Titer in TZM.bl cells) [2] was 0.329 µg/mL, the IC80 (Titer in TZM.bl cells) [2] was 1.06 µg/mL and the MPI [2] was 100. The IC50 (Titer in TZM.bl cells) [3] was 0.283 µg/mL, the IC80 (Titer in TZM.bl cells) [3] was 0.953 µg/mL and the MPI [3] was 100. It also gave an IC50 (Titer in TZM.bl cells) [4] of 0.088 µg/mL, an IC80 (Titer in TZM.bl cells) [4] of 0.394 µg/mL and an MPI [4] of 100. The IC50 (Titer in TZM.bl cells) [5] was 39 µg/mL, the IC80 (Titer in TZM.bl cells) [5] was over 50 µg/mL and the MPI [5] was 56. It also gave an IC50 (Titer in TZM.bl cells) [6] of over 50 µg/mL, an IC80 (Titer in TZM.bl cells) [6] of over 50 µg/mL and an MPI [6] of 12. The IC50 (Titer in TZM.bl cells) [7] was 3.11 µg/mL, the IC80 (Titer in TZM.bl cells) [7] was 13.9 µg/mL and the MPI [7] was 99. The IC50 (Titer in TZM.bl cells) [8] was 0.039 µg/mL, the IC80 (Titer in TZM.bl cells) [8] was 0.173 µg/mL and the MPI [8] was 100. It also gave an IC50 (Titer in TZM.bl cells) [9] of 13.2 µg/mL, an IC80 (Titer in TZM.bl cells) [9] of over 50 µg/mL and an MPI [9] of 76. For the same substance, the IC50 (Titer in TZM.bl cells) [10] was 1.15 µg/mL, the IC80 (Titer in TZM.bl cells) [10] was 9.65 µg/mL and the MPI [10] was 89. The IC50 (Titer in TZM.bl cells) [11] was 5.34 µg/mL, the IC80 (Titer in TZM.bl cells) [11] was 44.1 µg/mL and the MPI [11] was 82. For the same substance, the IC50 (Titer in TZM.bl cells) [12] was 0.11 µg/mL, the IC80 (Titer in TZM.bl cells) [12] was 0.317 µg/mL and the MPI [12] was 99. The IC50 (Titer in TZM.bl cells) [13] was over 50 µg/mL, the IC80 (Titer in TZM.bl cells) [13] was over 50 µg/mL and the MPI [13] was 43. It also gave an IC50 (Titer in TZM.bl cells) [14] of 26.2 µg/mL, an IC80 (Titer in TZM.bl cells) [14] of over 50 µg/mL and an MPI [14] of 59. The IC50 (Titer in TZM.bl cells) [15] was over 50 µg/mL, the IC80 (Titer in TZM.bl cells) [15] was over 50 µg/mL and the MPI [15] was 0. The IC50 (Titer in TZM.bl cells) [16] was 0.018 µg/mL, the IC80 (Titer in TZM.bl cells) [16] was 0.155 µg/mL and the MPI [16] was 100. For the same substance, the IC50 (Titer in TZM.bl cells) [17] was over 50 µg/mL, the IC80 (Titer in TZM.bl cells) [17] was over 50 µg/mL and the MPI [17] was 4. It also gave an IC50 (Titer in TZM.bl cells) [18] of over 50 µg/mL, an IC80 (Titer in TZM.bl cells) [18] of over 50 µg/mL and an MPI [18] of 28. For the same substance, the IC50 (Titer in TZM.bl cells) [19] was 0.322 µg/mL, the IC80 (Titer in TZM.bl cells) [19] was 0.583 µg/mL and the MPI [19] was 100. It also gave an IC50 (Titer in TZM.bl cells) [20] of 0.113 µg/mL, an IC80 (Titer in TZM.bl cells) [20] of 0.53 µg/mL and an MPI [20] of 99. It also gave an IC50 (Titer in TZM.bl cells) [21] of over 50 µg/mL, an IC80 (Titer in TZM.bl cells) [21] of over 50 µg/mL and an MPI [21] of 13.
